# B1: gintonin: ginseng-derived glycolipoprotein; structural protein of ginseng major latex-like protein (MLP151) and ribonuclease-like storage proteins; crude gintonin used in tests (protein)
# chain 1: MGLTGKLICQTGIKSDGDVFHELFGTRPHHVPNITPANIQGCDLHEGEFGKVGSVVIWNYSIDGNAMIAKEEIVAIDEEDKSVTFKVVEGHLFEEFKSIVFSVHVDTKGEDNLVTWSIDYEKLNESVKDPTSYLDFLLSVTRDIEAHHLPK
# chain 2: RSDYPWAMFALRLQWPAGFCEVNNACDTKSLLNTFTIHGLYPYNAKGTPALYCDGTAFDVNSVSDFLAEMHLAWPSHETNTEDIQFWEHEWKKHGRCSEALLKQTDYFRTALAFRKAFDIVGLLNQEGIYPNNDLYRPKMIKEAIKKHLNAVPEIDFTKNENSEYVLTDINVCVNQQATRFVDCPTDDATDDYRLKFVRLPSKMKFADPRTNSII
# Experiments:
# HUVECs = test: Tubular formation of HUVECs on Matrigel; type: cell-based, human; details: gintonin 30 μg/ml, 4 hrs
# Method: To examine the effect of gintonin on angiogenesis, formation of vascular tube-like structures on Matrigel was compared between the control and the gintonin-treated group (Kim et al. Biol Pharm Bull 30: 1674-1679).
# Briefly, cells were incubated for 6 hrs in M199 (1% FBS). After trypsinization, the cells were suspended in M199 (1% FBS), and seeded (2×10^5 cells/well) to 24-well plates coated with Matrigel (250 μl/well).
# The cells were incubated at 37° C. for 4 hrs in M199 (1% FBS) containing gintonin (30 μg/ml), and observed for tubular formation by inverted fluorescence microscopy (AxioVert200, Carl Zeiss).
# LPA2 receptor = LPA2 receptor (Homo sapiens, UniProt Q9HBW0); test: Intracellular free Ca2+ (Fura-2AM) in LPA2-expressing B103 cells; type: cell-based; parameters: host or cells: B103 rat neuroblastoma cells
# Sequence of LPA2 receptor (Q9HBW0 whole entry): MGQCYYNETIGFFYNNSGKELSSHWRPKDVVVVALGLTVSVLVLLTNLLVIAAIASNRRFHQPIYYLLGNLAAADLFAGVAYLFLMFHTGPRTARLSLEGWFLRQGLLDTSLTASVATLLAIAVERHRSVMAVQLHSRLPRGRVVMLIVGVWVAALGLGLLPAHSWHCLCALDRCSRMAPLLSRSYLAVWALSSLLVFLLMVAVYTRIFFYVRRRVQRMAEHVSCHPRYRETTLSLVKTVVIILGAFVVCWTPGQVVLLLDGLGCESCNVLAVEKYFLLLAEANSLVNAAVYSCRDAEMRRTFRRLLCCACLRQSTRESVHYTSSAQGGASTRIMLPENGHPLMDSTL
# From the text: LPA family receptors are endogenous to cells of most organs. B103 rat neuroblastoma cells, known as LPA receptor-null cells (Valentine et al., Biochim Biophys Acta 1780. 597-605) were transiently transfected with a plasmid (vector) carrying one of genes coding for LPA1(edg-2), LPA2(edg-4), LPA3(edg-7), LPA4, LPA5 and LPA6 receptors or a plasmid carrying none of them (empty vector). Two or three days after transfection, the cells are suspended, and made permeable. Then, the permeable cells are treated with Fura-2AM, a fluorescent dye binding to calcium, and then with gintonin, followed by spectrofluorephotometry to examine whether gintonin induces an increase in intracellular free Ca^2+ level.
# (1) preparing large quantities of plasmids carrying respective LPA family receptor genes and an empty plasmid carrying none of them through amplification and purification (maxi-preparation); (2) verifying the expression of LPA receptors wherein B103 cells are transfected with haematoglutin (HA)-tagged LPA receptors, and then subjected to Western blotting analysis using an anti-HA primary antibody and a horseradish peroxidase (HRP)-conjugated secondary antibody to develop a color; (3) verifying the expression of LPA receptors wherein B1-3 cells are transfected with haematoglutin (HA)-tagged LPA receptors, and then subjected to confocal laser microscopy using an anti-HA antibody and a fluorescence dye Cy3-conjugated secondary antibody; (4) transfecting the empty plasmid and each of the plasmids carrying LPA family receptor genes into B103 cells; (5) treating the transfected B103 cells with trypsin (0.05% trypsin with EDTA, w/v) 2-3 days post-transfection, to give a cell suspension; (6) culturing the suspended B103 cells with Fura-2AM (2.5 μM); and (7) treating the suspended B103 cells with gintonin and quantifying a change in intracellular free Ca^2+ level in a cuvette by spectrofluorephotometry using Fura-2AM.
# Human LPA (lysophosphatidic acid) receptor subtypes, orphan GPCRs (G protein coupled receptors) and plasmids carrying GPCRs were purchased from Missouri S&T resource Center (www.cDNA.org).
# The transient transfection of LPA receptor subtypes was carried out with the aid of Lipofectamine 2000 of Invitrogen. A plasmid (10.8 μg) carrying each LPA receptor (LPA1, LPA2, LPA3, LPA4, LPA5, and LPA6) was transfected into B103 cells grown in 10-cm dishes, and incubated for 2 days prior for use in experiments.
# In this Example, gintonin, or ginsenoside Rb1 or Rg1 was examined for its ability to induce a transient increase of [Ca^2+]i in Fura-2AM-loaded B103 cells which were transfected with LPA receptors and in Fura-2AM-loaded B103 cells which were not transfected with LPA receptors. […]
molecule,measurement,setting,value
B1,tubular formation,HUVECs,promoted tubular formation
same,EC50,"LPA2 receptor; LPA2 receptor, B103 cells, read-out: EC50, LPA receptor-mediated intracellular calcium increase",4 ± 0.4 pM
same,increase in intracellular calcium level,"LPA2 receptor; gintonin 1 μg/ml, LPA2-expressing B103 cells",208.3 ± 13.0 µM

# From patent US20140234868A1, “USE FOR GLYCOLIPOPROTEIN GINTONIN, ISOLATED AND IDENTIFIED FROM GINSENG, AS A NATURAL MEDICAL-PLANT DERIVED LIGAND” (KONKUK UNIVERSITY INDUSTRIAL COOPERATION CORP., priority 2011, published 2014)
